# Data reported in patent US9097721B2, “Compositions comprising engineered phosphothreonine affinity reagents, methods of making, and methods of use” (The Board of Trustees of the University of Illinois, priority 2012, dated 2015).
# Several values for one entry are separate records, joined by “and”; a condition that tells them apart may be missing. Equal values may be shown once. Read-outs that look alike come from different tables or passages of the source.
# Legend:
# [1] = biological target: T1, cognate pT peptide (Rad9-pT) (Saccharomyces cerevisiae, UniProt P14737); assay: FTS assay, Tm shift in the presence of the cognate pT peptide; type: binding, yeast
# T1 construct: host or cells: chemical synthesis
# Protocol: The FTS assay was performed on a MxPro-Mx3005P instrument (Stratagene) following the protocol described by Giuliani et al (Giuliani et al. (2008) Biochemistry 47, 13974-84). It is a real-time assay using the SYBR® Green experiment setting with dissociation curve. The default FRROX filter set was used with an excitation wavelength of 492 nm and emission wavelength of 610 nm. FHA1 domains diluted with PBS to 2× final concentration (i.e. 2 μM and 8 μM) were mixed with 10×SYPRO® Orange protein gel stain (Invitrogen; 5000× concentration in DMSO) to give a final dye concentration of 10×. Then, to the protein wells only, 10 μL of the dye+protein mixture was added along with 10 μL of 1×PBS buffer. In other wells, 10 μL of either the pT peptide or its non-phosphorylated form (diluted to 2× final concentration with PBS, i.e. 100 μM and 500 μM) was added to 10 μL of dye+protein mixture. The final reaction volume was 20 μL with final concentrations of 1 μM or 4 μM of FHA1 domains, 50 μM or 250 μM of pT and non-phosphorylated peptides and 5× final concentration of the SYPRO® Orange. The assay was performed in duplicate in 96 well white PCR plates (BIO-Rad) covered with optically clear Microseal® ‘B’ Film (Bio-Rad) and heated from 25° C. to 95° C. and the melting curve was obtained with fluorescence (R) values plotted on the Y-axis and increasing temperature (° C.) on the X-axis. The mid-point of the curve gives the melting temperature (Tm), which shifts to a higher temperature in the presence of the pT peptide.
# The Tm values of FHA1 variants were determined by FTS assay (Giuliani et al. (2008) Biochemistry 47, 13974-84). A representative Tm curve for the G2 variant at 1 μM concentration is shown (solid squares), alone and in the presence of the pT peptide (FIG. 11). […] The Tm values of the thermally stable variants (along with WT and D2 variant) at 1 μM and 4 μM concentration, along with the Tm shift in the presence of two different concentrations (50 μM and 250 μM) of the pT peptide, are listed in Table S3.
# [2] = biological target: T2, pT peptide (Rad 9-pT: SLEVpTEADATFYAKK) (Saccharomyces cerevisiae, UniProt P14737); assay: Isothermal titration calorimetry (ITC); type: binding, yeast; conditions: in solution by ITC; FHA1 domain 35 μM in cell; listed as WT FHA1 domain
# T2 construct: host or cells: chemical synthesis
# Protocol: A fixed amount (10 μL) of the pT peptide (Rad 9-pT: SLEVpTEADATFYAKK (SEQ ID NO:9); 500 μM) was injected from the syringe into the sample cell containing the FHA1 domain (35 μM). […] Each measurement was repeated three times.
# The affinity of the G2 variant and the WT FHA1 domain to the pT peptide (SLEVpTEADATFYAKK) (SEQ ID NO:9) was determined by ITC (FIG. 12). The sample cell contained the purified FHA1 domains (35 μM) and the injection syringe was filled with the pT peptide (350 μM). […] The FHA1 domains bound to the pT peptide with a stoichiometry of 1:1, and the ITC graph was fitted by the single site binding model.
# [3] = biological target: T2, pT peptide (Rad 9-pT: SLEVpTEADATFYAKK); conditions: Durocher et al. (2000); read-out: previously reported Kd by ITC; cited from earlier work
molecule,measurement,setting,value
"WT: N-terminal FHA1 domain of S. cerevisiae Rad53 protein kinase, residues 1-170 (SEQ ID NO:7) (protein, listed as Saccharomyces cerevisiae) MENITQPTQQSTQATQRFLIEKFSQEQIGENIVCRVICTTGQIPIRDLSADISQVLKEKRSIKKVWTFGRNPACDYHLGNISRLSNKHFQILLGEDGNLLLNDISTNGTWLNGQKVEKNSNQLLSQGDEITVGVGVESDILSLVIFINDKFKQCLEQNKVDRIRSNLKNT",Tm shift (° C.) in the presence of pT peptide,"[1]; 50 μM pT peptide, protein 1 μM",1.7 °C
same,Tm shift (° C.) in the presence of pT peptide,"[1]; 50 μM pT peptide, protein 4 μM",1.95 °C
same,Tm shift (° C.) in the presence of pT peptide,"[1]; 250 μM pT peptide, protein 1 μM",3.8 °C
same,Tm shift (° C.) in the presence of pT peptide,"[1]; 250 μM pT peptide, protein 4 μM",3.55 °C
same,Kd,[2],~1000 nM and 1000 nM
same,Kd,[3],530 nM
